Broadly, the Kd is the equilibrium constant for the complex coming apart. Higher therefore signals weaker binding. The koff is the rate constant with which the complex falls apart. A low value points to slow dissociation. By kon is commonly meant the second-order rate constant of association. Read a low kon as slow association.

The values that follow come from patent US20120219551A1.

Assay [1] concerns the target FcγRIIA (CD32A), H131 allotype (human) (UniProt P12318). As to the kind of experiment: not stated; human FcRs.
For assay [2], the target named is FcγRIIB (CD32B) (human) (UniProt P31994). Description: not stated; human FcRs.
FcγRIIB (CD32B) (human), sequence (P31994 43-217 limits assumed): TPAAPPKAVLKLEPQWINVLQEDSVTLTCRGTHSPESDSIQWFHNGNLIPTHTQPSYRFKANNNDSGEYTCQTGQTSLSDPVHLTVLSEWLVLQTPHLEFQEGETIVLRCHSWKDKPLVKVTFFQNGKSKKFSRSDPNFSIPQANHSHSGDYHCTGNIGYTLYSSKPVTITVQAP
The target in assay [3] is FcγRIIIA (CD16A), F158 allotype (human) (UniProt P08637). Description: not stated; human FcRs.
FcγRIIIA (CD16A), F158 allotype (human), sequence (P08637 17-208 limits assumed): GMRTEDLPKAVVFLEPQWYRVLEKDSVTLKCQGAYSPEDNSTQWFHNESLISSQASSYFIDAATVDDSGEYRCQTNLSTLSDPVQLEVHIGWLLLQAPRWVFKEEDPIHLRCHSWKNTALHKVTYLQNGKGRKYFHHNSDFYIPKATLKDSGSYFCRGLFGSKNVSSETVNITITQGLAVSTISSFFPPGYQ
Assay [4] has as its target FcγRIIIA (CD16A), V158 allotype (human) (UniProt P08637). Description: not stated; human FcRs.
For assay [5], the target named is FcγRIIIA on natural killer cells of human donor PBMC (human) (UniProt P08637). As to the kind of experiment: cell-based or functional assay.
FcγRIIIA on natural killer cells of human donor PBMC (human), sequence (P08637 17-254): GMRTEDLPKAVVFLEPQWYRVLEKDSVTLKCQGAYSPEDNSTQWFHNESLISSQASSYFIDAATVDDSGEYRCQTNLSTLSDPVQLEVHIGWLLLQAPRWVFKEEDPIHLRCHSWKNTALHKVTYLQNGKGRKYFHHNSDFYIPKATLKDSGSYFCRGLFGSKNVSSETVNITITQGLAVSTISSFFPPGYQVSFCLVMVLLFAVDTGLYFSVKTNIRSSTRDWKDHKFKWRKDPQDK
The target in assay [6] is soluble dimeric FcγRIIB-Fc fusion protein (extracellular domain of FcγRIIB fused to hinge-CH2-CH3 of human IgG2) (human) (UniProt P31994). As to the kind of experiment: SPR (BIAcore), Fc mutant in ch4-4-20, off rate relative to wild type. On the technique in general: Surface plasmon resonance follows binding to a sensor surface in real time, without labels.
soluble dimeric FcγRIIB-Fc fusion protein (extracellular domain of FcγRIIB fused to hinge-CH2-CH3 of human IgG2) (human), sequence (P31994 43-217): as the sequence (P31994 43-217 limits assumed) above
Assay [7] has as its target soluble monomeric FcγRIIIA 158V (extracellular region joined to linker-AVITAG) (human) (UniProt P08637). The description is as above.
For assay [8], the target named is soluble monomeric FcγRIIIA (extracellular region of FcγRIIIA joined to the linker-AVITAG sequence) (human) (UniProt P08637). As to the kind of experiment: ELISA. On the technique in general: An ELISA detects its analyte on a solid surface through an enzyme-linked reagent.
soluble monomeric FcγRIIIA (extracellular region of FcγRIIIA joined to the linker-AVITAG sequence) (human), sequence (P08637 17-208): as the sequence (P08637 17-208 limits assumed) above
Assay [9] has as its target soluble dimeric FcγRIIB-Fc fusion protein (extracellular domain of FcγRIIB fused to hinge-CH2-CH3 of human IgG2) (human) (UniProt P31994). Description: SPR (BIAcore), Ab captured on BSA-FITC, separate fit 200/800 nM.
In assay [10] the target is FcγRIIA (CD32A), H131 allotype (human) (UniProt P12318). Description: BIAcore.
FcγRIIA (CD32A), H131 allotype (human), sequence (P12318 34-217 limits assumed): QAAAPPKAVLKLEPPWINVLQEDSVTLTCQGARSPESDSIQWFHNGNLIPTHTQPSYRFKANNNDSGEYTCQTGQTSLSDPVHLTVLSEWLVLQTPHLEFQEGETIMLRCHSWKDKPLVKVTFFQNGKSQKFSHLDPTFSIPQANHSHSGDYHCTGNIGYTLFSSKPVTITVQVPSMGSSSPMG
For assay [11], the target named is FcγRIIIA (CD16A), F158 allotype (human) (UniProt P08637). Description: BIAcore.
Assay [12] concerns the target FcγRIIIA (CD16A), V158 allotype (human) (UniProt P08637). As to the kind of experiment: BIAcore.
Assay [13] deals with FcγRIIIA (CD16A), F158 allotype (human) (UniProt P08637). As to the kind of experiment: BIAcore (as Table 27).
The target in assay [14] is FcγRIIIA (CD16A), V158 allotype (human) (UniProt P08637). Description: BIAcore (as Table 27).
FcγRIIIA (CD16A), V158 allotype (human), sequence (P08637 17-208 F176V limits assumed): as the sequence (P08637 17-208 limits assumed) above, with F160V counted along it
Assay [15] has as its target soluble dimeric FcγRIIB-Fc fusion protein (extracellular domain of FcγRIIB fused to hinge-CH2-CH3 of human IgG2) (human) (UniProt P31994). As to the kind of experiment: ELISA.
In assay [16] the target is FcγRIIB (CD32B) (human) (UniProt P31994). Description: BIAcore.
Assay [17] has the same target. As to the kind of experiment: BIAcore (as Table 27).
The target in assay [18] is soluble monomeric FcγRIIIA (extracellular region of FcγRIIIA joined to the linker-AVITAG sequence) (human) (UniProt P08637). As to the kind of experiment: SPR (BIAcore), Ab captured on BSA-FITC, separate fit 200/800 nM.

soluble monomeric FcγRIIIA 158V (extracellular region joined to linker-AVITAG) (human), sequence (P08637 17-208 F176V): as the sequence (P08637 17-208 limits assumed) above, with F160V counted along it

For the substance “immunoglobulin with Fc variant S239D, A330L, I332E (control XmAb) (antibody)”, the fold change vs wild-type affinity came out at 0 fold in assay [1], 0.74 fold in the assay with FcγRIIB (CD32B) (human) [2], 8.1 fold in [3] and 13.9 fold in assay [4].

“ch4-4-20 MgFc39 (E293V, Q295E, A327T) (antibody)”: the Relative rate of lysis (ADCC, vs wild type ch4-4-20) in assay [5] was found to be 4.29. Further, the Koff WT/Mut worked out at 1.3 in assay [6] and 0.86 in assay [7].

In assay [5], “ch4-4-20 MgFc49 (K261N, K210M, P396L) (antibody)” had a Relative rate of lysis (ADCC, vs wild type ch4-4-20) of 2.06. Besides, the results for the Koff WT/Mut in assay [6] and in [7] were 0.85 and 1.29, respectively.

On to “immunoglobulin with Fc variant P247L, D270E, N421K (antibody)”, for which the values for the fold change vs wild-type affinity (in assay [1]; with FcγRIIB (CD32B) (human) [2]; in [4]) were 1 fold, -0.7 fold and 0.9 fold, respectively.

“ch4-4-20 Mut19 (K334N, K246I) (antibody)” had an ELISA, OD in assay [8] of 0.75 OD. Further, the ADCC, % in [5] was 11%. In addition, the Kd in assay [9] was 45.3 nM.

As to “immunoglobulin with Fc variant F243L, R292P, V305I (antibody)”, the Koff WT/Koff mutant in [10] is 0.23; in assay [11], 1.43; in assay [12], 2.56; in [13], 1.43; in assay [14], 2.56. Moreover, the fold change vs wild-type affinity in assay [1] was -3.3 fold; with FcγRIIB (CD32B) (human) [2], -13.3 fold; in [3] it was 0.4 fold; in assay [4], 1.6 fold.

The substance “ch4-4-20 MgFc43b (K288R, T307A, K344E, P396L) (antibody)” yielded a Relative rate of lysis (ADCC, vs wild type ch4-4-20) in [5] of 3.3. Besides, the values for the Koff WT/Mut in assay [6] and in assay [7] were 0.89 and 1.27, respectively.

“immunoglobulin with Fc variant D270E, K392T, P396L (antibody)”: the fold change vs wild-type affinity in assay [1] is 0.9 fold; in the assay with FcγRIIB (CD32B) (human) [2], -0.3 fold; in assay [4], 0.8 fold.

“ch4-4-20 MgFc63 (S298N, K360R, N361D) (antibody)” showed a Koff WT/Mut in assay [6] of 0.67.

On to “immunoglobulin with Fc variant S298A, E333A, K334A (control AAA) (antibody)”, for which the fold change vs wild-type affinity is -3.3 fold in [1], -2.5 fold with FcγRIIB (CD32B) (human) [2], 0.1 fold in assay [3] and 0.6 fold in [4].

For “immunoglobulin with Fc variant F243L, R292P, V305I, P396L (antibody)”, the results for the fold change vs wild-type affinity (in assay [1]; with FcγRIIB (CD32B) (human) [2]; in [4]) were -0.3 fold, -1.6 fold and -3 fold, respectively.

On to “immunoglobulin with Fc variant R292P (antibody)”, for which the fold change vs wild-type affinity in assay [1] is -0.5 fold; with FcγRIIB (CD32B) (human) [2], -2.7 fold; in assay [3], 0.6 fold.

In the case of ch4-4-20 MgFc37 (K248M) (antibody), the Relative rate of lysis (ADCC, vs wild type ch4-4-20) in assay [5] turned out to be 3.83. The figures for the Koff WT/Mut in assay [6] and in assay [7] were 1.03 and 0.977, respectively.

As to “immunoglobulin with Fc variant F243L, R292P, P396L (antibody)”, the fold change vs wild-type affinity in assay [1] was 0.4 fold; with FcγRIIB (CD32B) (human) [2] it was -1.6 fold; in [3], 2.4 fold; in [4], 5.3 fold.

As to ch4-4-20 MgFc62 (R292G) (antibody), the Koff WT/Mut in assay [6] was 0.67.

For the substance ch4-4-20 MgFc61 (A330V) (antibody), in assay [6], the Koff WT/Mut turned out to be 0.61.

“ch4-4-20 Mut10 (P396L, A330S, K288N) (antibody)”: the figures for the ELISA, OD in [15] and in [8] were 1.2 OD and 1 OD, respectively. For the same substance, in assay [5], the ADCC, % came out at 41%. The Kd in assay [9] amounted to 41.3 nM.

For “immunoglobulin with Fc variant R255L, D270E, P396L (antibody)”, the fold change vs wild-type affinity in the assay with FcγRIIB (CD32B) (human) [2] is -0.1 fold; in [3] it was 0.7 fold; in assay [4], 0.3 fold.

As for “immunoglobulin with Fc variant D270E, G316D, R416G (antibody)”, the Koff WT/Koff mutant amounted to 1.95 in [10]; 0.78 with FcγRIIB (CD32B) (human) [16]; 2.49 in [11]; 2.18 in assay [12]; 0.78 with FcγRIIB (CD32B) (human) [17]; 2.49 in [13]. In assay [14], this substance registered a Koff WT/Koff mutant of 2.18. In addition, the fold change vs wild-type affinity was 0.4 fold in assay [1], -1.7 fold with FcγRIIB (CD32B) (human) [2], 0.1 fold in assay [3] and 0.4 fold in assay [4].

ch4-4-20 MgFc64 (E233G) (antibody) showed a Koff WT/Mut in assay [6] of 0.54.

Turning to “immunoglobulin with Fc variant P396L (antibody)”, the Koff WT/Koff mutant in assay [10] was 1.63; with FcγRIIB (CD32B) (human) [16], 2.58; in assay [11] it was 1.73; in assay [12], 1.27; in the assay with FcγRIIB (CD32B) (human) [17], 2.58; in assay [13] it was 1.73. This substance returned a Koff WT/Koff mutant in [14] of 1.27. Besides, the fold change vs wild-type affinity in assay [1] amounted to 0.6 fold; with FcγRIIB (CD32B) (human) [2] it was 1.6 fold; in assay [3], 0.7 fold; in assay [4], 0.3 fold.

As for ch4-4-20 MgFc65 (N276Y) (antibody), in assay [6], the Koff WT/Mut is 0.64.

With ch4-4-20 Mut16 (F372Y) (antibody), the ELISA, OD worked out at 1.55 OD in [15] and 1 OD in assay [8]. This substance yielded an ADCC, % in assay [5] of 15%. Moreover, the Kd in assay [18] turned out to be 84.8 nM.

On to “ch4-4-20 Mut23 (K334E, R292L) (antibody)”, for which the ELISA, OD was found to be 0.1 OD in assay [15] and 1.25 OD in assay [8]. In assay [5], this substance gave an ADCC, % of 25%. Also, the Kd stood at 108 nM in assay [9] and 70.2 nM in assay [18]. In addition, the koff in assay [9] came to 0.107 s⁻¹; in [18], 0.105 s⁻¹. Also, in [18], the kon was found to be 1.43e+06 M⁻¹ s⁻¹.

In the case of ch4-4-20 Mut18 (K326E) (antibody), the ELISA, OD in [15] was found to be 1.25 OD; in assay [8] it was 1 OD. In [5], this substance gave an ADCC, % of 28%. For the same substance, the values for the Kd in assay [9] and in assay [18] were 51.7 nM and 92 nM, respectively. For the same substance, the koff in assay [9] was 0.043 s⁻¹; in [18], 0.112 s⁻¹. Besides, in assay [18], the kon turned out to be 1.23e+06 M⁻¹ s⁻¹.

Take “immunoglobulin with Fc variant Y300L (antibody)”: the Koff WT/Koff mutant in assay [10] is 1.86; with FcγRIIB (CD32B) (human) [16], 1.18; in assay [11] it was 1.17; in [12], 1.01; with FcγRIIB (CD32B) (human) [17], 1.18; in assay [14], 1.01. In addition, the fold change vs wild-type affinity in [1] stood at 1.9 fold; with FcγRIIB (CD32B) (human) [2] it was 0.2 fold; in assay [3], 0.2 fold; in assay [4] it was 0 fold.

For “ch4-4-20 Mut14 (K288M, K334E) (antibody)”, in assay [15], the ELISA, OD is 0.13 OD. For the same substance, the ELISA, OD in assay [8] was 1.1 OD. In [5], this substance yielded an ADCC, % of 28%. Further, in [9], the Kd amounted to 95.6 nM and the koff was found to be 0.089 s⁻¹. In [18], the Kd amounted to 75.4 nM, the koff was 0.1 s⁻¹ and the kon is 1.37e+06 M⁻¹ s⁻¹.
